Where a chain is given by its changes, count along the chain named. In names and notes the source's numbering stands.
What was measured:
[1] = target: T1, GPIa/IIa on a stable K562 cell line (UniProt P17301 30-1181; P05556 21-798, limits assumed); experiment: flow cytometry on K562 cells expressing GPIa/IIa
T1 construct: whole, on cells; also called K562 cell line expressing GPIa/IIa

[2] = target: T2, GPIIb/IIIa on intact human platelets (human, UniProt P08514 32-1039; P05106 27-788); experiment: immunoprecipitation from biotinylated platelets; agrees with ELISA and Glanzmann platelet flow cytometry;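 further: precipitated biotin-labelled platelet membrane proteins visualized with biotinylated horseradish peroxidase-avidin complexes, scored for polypeptides behaving like GPIIb/IIIa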
T2 construct: whole, on cells; also called platelet GPIIb/IIIa; αIIbβ3

H44L4 full-length IgG = target: T3, H44L4 full-length IgG; experiment: peptide ELISA (scheme of FIG. 8)
T3 construct: also called autoanti-GPIIb/IIIa

[3] = target: T2, GPIIb/IIIa on intact human platelets; experiment: flow cytometry on intact platelets
immobilized GPIa/IIa = target: T4, immobilized GPIa/IIa (UniProt P17301 30-1181; P05556 21-798); experiment: ELISA (PakAuto kit), soluble Fab
T4 construct: Antigen of the PakAuto ELISA kit

[4] = target: T5, vitronectin receptor (αvβ3) on CHO cells (UniProt P06756 31-1048; P05106 27-788, limits assumed); experiment: flow cytometry on transfected CHO cells
T5 construct: whole, on cells
T5 sequence (P06756 31-1048 limits assumed, chain 1 of 2): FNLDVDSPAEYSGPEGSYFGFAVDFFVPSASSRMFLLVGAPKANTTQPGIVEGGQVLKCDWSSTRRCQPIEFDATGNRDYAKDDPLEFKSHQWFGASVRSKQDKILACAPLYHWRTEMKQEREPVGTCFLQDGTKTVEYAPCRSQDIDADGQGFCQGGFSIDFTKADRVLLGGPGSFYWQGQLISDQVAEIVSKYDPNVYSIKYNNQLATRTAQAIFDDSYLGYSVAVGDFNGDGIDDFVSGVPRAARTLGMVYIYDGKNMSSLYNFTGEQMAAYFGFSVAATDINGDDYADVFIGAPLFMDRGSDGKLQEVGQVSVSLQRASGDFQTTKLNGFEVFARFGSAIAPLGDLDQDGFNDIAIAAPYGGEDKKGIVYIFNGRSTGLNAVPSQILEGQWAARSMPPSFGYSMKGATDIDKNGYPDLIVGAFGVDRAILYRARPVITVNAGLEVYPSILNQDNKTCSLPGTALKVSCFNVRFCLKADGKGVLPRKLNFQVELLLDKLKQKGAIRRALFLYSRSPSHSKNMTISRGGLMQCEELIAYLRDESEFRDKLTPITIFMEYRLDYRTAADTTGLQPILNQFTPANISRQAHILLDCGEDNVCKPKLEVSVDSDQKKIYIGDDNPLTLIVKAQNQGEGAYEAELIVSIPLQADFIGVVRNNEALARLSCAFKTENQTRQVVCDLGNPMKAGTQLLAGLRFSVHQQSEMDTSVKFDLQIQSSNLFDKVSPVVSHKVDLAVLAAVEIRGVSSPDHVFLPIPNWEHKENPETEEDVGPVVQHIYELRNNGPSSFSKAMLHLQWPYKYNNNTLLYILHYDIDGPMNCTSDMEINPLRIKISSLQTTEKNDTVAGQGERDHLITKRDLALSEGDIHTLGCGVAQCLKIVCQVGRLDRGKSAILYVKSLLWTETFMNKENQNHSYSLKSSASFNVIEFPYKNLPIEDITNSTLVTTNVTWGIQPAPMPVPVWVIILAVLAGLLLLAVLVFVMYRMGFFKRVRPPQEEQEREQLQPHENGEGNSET
T5 sequence (P05106 27-788 limits assumed, chain 2 of 2): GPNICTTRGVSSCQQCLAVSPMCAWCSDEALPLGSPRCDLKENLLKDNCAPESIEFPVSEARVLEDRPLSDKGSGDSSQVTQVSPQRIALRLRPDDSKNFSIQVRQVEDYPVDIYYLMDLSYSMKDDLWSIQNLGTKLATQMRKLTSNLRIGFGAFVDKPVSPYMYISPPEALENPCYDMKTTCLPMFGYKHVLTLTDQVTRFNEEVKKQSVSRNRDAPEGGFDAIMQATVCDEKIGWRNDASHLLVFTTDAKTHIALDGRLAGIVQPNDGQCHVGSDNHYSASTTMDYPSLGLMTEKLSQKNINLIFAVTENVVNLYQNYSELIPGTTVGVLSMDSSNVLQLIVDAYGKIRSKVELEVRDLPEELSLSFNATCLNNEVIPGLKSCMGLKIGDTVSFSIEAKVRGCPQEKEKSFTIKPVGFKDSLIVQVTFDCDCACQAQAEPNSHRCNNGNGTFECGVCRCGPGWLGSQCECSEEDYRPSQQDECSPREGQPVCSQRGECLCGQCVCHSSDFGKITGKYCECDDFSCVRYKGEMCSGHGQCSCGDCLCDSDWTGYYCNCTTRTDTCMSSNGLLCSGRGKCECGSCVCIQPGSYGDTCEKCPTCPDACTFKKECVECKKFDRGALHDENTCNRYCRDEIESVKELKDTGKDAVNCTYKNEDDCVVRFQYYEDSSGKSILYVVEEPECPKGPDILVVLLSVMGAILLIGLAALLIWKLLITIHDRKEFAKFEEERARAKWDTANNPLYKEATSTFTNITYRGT

B1: H29L104 (Fab, V domains shown)
VH: EVQLVESGGGLVKPGGSLRLSCAASGFTFSSYSMNWVRQAPGKGLEWVSSISSSSSYIYYADSVKGRFTISRDNAKNSLYLQMNSLRAEDTAVYYCARDHPNYYDSSGLFDYWGQGTLVTVSS
VL: SSELTQDPAVSVALGQTVRITCQGDSLRSYYASWYQQKPGQAPVLVIYGKNYRPSGIPDRFSGSSSGNTASLTITGAQAEDEADYYCNSRDSSGNHWVFGGGTKLTVL
notes: Soluble Fab
**Q.** Does B1 bind [1]?
**A.** no binding

**Q.** Does B1 bind [2]?
**A.** no binding

B2: P4-2a (peptide)
peptide: CIVPWFFHC
notes: From the Cys-7-mer-Cys constrained phage library; also called C7C constrained peptide
**Q.** Does B2 bind (H44L4 full-length IgG)?
**A.** binds

**Q.** Does CVVPWFFHC [P74-4] bind (H44L4 full-length IgG)?
**A.** binds

**Q.** Does KHSMPINAILPP [P124-8] bind (H44L4 full-length IgG)?
**A.** binds

**Q.** Does CETWWRLSC [P73-6] bind (H44L4 full-length IgG)?
**A.** binds

**Q.** Does CLVPWMFHC [P73-11] bind (H44L4 full-length IgG)?
**A.** binds

**Q.** Does IDVWWLSTQGVP [P124-1] bind (H44L4 full-length IgG)?
**A.** binds

**Q.** Does CIIPFMFQC [P73-9] bind (H44L4 full-length IgG)?
**A.** binds

**Q.** Does CTWLPYPYC [P74-9] bind (H44L4 full-length IgG)?
**A.** binds

**Q.** Does CIVEHFFHC [P73-2] bind (H44L4 full-length IgG)?
**A.** binds

**Q.** Does LPFDTIIKPWPV [P123-11] bind (H44L4 full-length IgG)?
**A.** binds

**Q.** Does CTHWWRPAC [P73-10] bind (H44L4 full-length IgG)?
**A.** binds

B3: H45L61 (Fab, V domains shown)
VH: QVQLVESGGGVVQPGRSLRLSCAASGFTFSNFNMHWVRQAPGKGLEWVALISYDGSSKYYTDSVKGRFTISRDNSKNTLYLQMNSLRPEDTAVYYCMVVGAFDYWGQGTLVTVSS
VL: EIVLTQSPGTLSLSPGERATLSCRASQSVGSSYLAWYQQKPGQAPRLLIYGVSSRATGIPDRFSGSGSGTDFTLTISRLEPEDFAVYYCQQYGGSPLTFGGGTTVEIK
notes: Soluble Fab, clone A
**Q.** Does B3 bind [1]?
**A.** no binding

**Q.** Does B3 bind [2]?
**A.** no binding

B4: H47L63 (Fab, V domains shown)
VH: B3 VH with A24T, S57N, Y59N, T61A, D62N, Y80F, P88V
VL: EIVLTQSPGTLSLSPGERATLSCRASQSVGNNYLAWYQQRPGRAPRLVMYDPSSRATGIPDRFSGSGSGTDFTLTISRLEPEDFAVYYCQQYGNSPPTFGGGTKVEIK
notes: Soluble Fab, clone A
**Q.** Does B4 bind [1]?
**A.** no binding

**Q.** Does B4 bind [2]?
**A.** no binding

B5: H47L64 (Fab, V domains shown)
VH: B3 VH with A24T, S57N, Y59N, T61A, D62N, Y80F, P88V
VL: EIVLTQSPDTLSLSPGDRATLSCRASQSVSNYLAWYQQKAGRAPSLLIYGTSRRATDIPDRFSGSGSGTDFTLTISRLEPEDSAVYYCQQYGSASLTFGGGTKVEIK
notes: Soluble Fab, clone A; also called putative GPIb/IX-specific Fab
**Q.** Does B5 bind [1]?
**A.** no binding

**Q.** Does B5 bind [2]?
**A.** no binding

**Q.** Does LPFNTLIVPGRT [P124-11] bind (H44L4 full-length IgG)?
**A.** binds

B6: P4-12 (peptide)
peptide: DLRLNSLIVPWS
notes: From the 12-mer linear phage library; also called 12-mer linear peptide
**Q.** Does B6 bind (H44L4 full-length IgG)?
**A.** binds

**Q.** Does CQHKLPSNC [P73-7] bind (H44L4 full-length IgG)?
**A.** binds

**Q.** Does FPLMSLINPWRT [P124-2] bind (H44L4 full-length IgG)?
**A.** binds

**Q.** Does FLPISTLITPSG [P123-8] bind (H44L4 full-length IgG)?
**A.** binds

B7: P4-7 (peptide)
peptide: FPLNTIIHSAVY
notes: as for B6
**Q.** Does B7 bind (H44L4 full-length IgG)?
**A.** binds

B8: H10L122 (Fab, V domains shown)
VH: QVQLVQSGAEVKKPGASVKVSCKASGYSFSNYYMHWVRQAPGEGLEWMGIINPKGGTTSYAQKFQGRVTIAADKFTNSAYMEPSSLRYEDTAVYFCARAKFSWSPDIWGQGTVVTVSS
VL: QAVVTQEPSLTVSPGGTVTLTCDSSTGAVTSGHYPYWLQQKPGQAPRTLIYDTHNKHSWTPGRFSGSLLGGKAALTLSGAQPEDEAEYYCSLSYSAVWVFGGGTKLTVL
notes: Soluble Fab
**Q.** Does B8 bind [1]?
**A.** no binding

**Q.** Does B8 bind [2]?
**A.** no binding

**Q.** Does CVVQWMFQC [P74-1a] bind (H44L4 full-length IgG)?
**A.** binds

**Q.** Does CVVSWMFQC [P74-8] bind (H44L4 full-length IgG)?
**A.** binds

B9: H38L72 (Fab, V domains shown)
VH: QVQLVESGGGVVQPGRSLRLSCAASGFTFSNYAMHWVRQAPGKGLEWVAVISYDGSNKYYADSVKGRFTISRDNSKNTLYLQMNSLRPEDTAVYYCARGGVGAFDYWGQGTLVTVSS
VL: EIVLTQSPATLSVSPGERATLSCRASQSVSSYLAWYQQKPGQAPRLLIYDASNRATGIPARFSGSGSGTDFTLTISSLEPEDFAVYYCQQRSNWPLTFGQGTKVEIK
notes: Soluble Fab
**Q.** Which results are given for B9?
**A.** binding result [1]: no binding; binding result [2]: no binding

B10: H37L92 (Fab, V domains shown)
VH: B9 VH with G102A
VL: QSALTQPASVSGSPGQSITISCTGTSSDVGGYKYVSWYQQHPGKAPKLIIYDVTNRPSGVSKRFSGSKSGNTASLTISGLQAEDEADYYCSSYTSRSTPVFGGGTKVTVL
notes: Soluble Fab
**Q.** Does B10 bind [1]?
**A.** no binding

**Q.** Does B10 bind [2]?
**A.** no binding

B11: H38L76 (Fab, V domains shown)
VH: B9 VH
VL: not shown
notes: Soluble Fab
**Q.** Does B11 bind [1]?
**A.** no binding

**Q.** Does B11 bind [2]?
**A.** no binding

B12: H38L74 (Fab, V domains shown)
VH: B9 VH
VL: EIVLTQSPATLSLSPGERATLSCRASQSVSSYLAWYQQKPGQAPRLLIYDASNRATGIPARFSGSGSGTDFTLTISSLEPEDFAVYYCQQRSNWPTFGGGTKVEIK
notes: Soluble Fab
**Q.** Which results are given for B12?
**A.** binding result [1]: no binding; binding result [2]: no binding

B13: H36L76 (Fab, V domains shown)
VH: B9 VH with N31S, G102A
VL: not shown
notes: Soluble Fab, clone B
**Q.** What does the source list for B13?
**A.** binding result [1]: no binding; binding result [2]: no binding

B14: H38L75 (Fab, V domains shown)
VH: B9 VH
VL: B9 VL with V13L, S30R, Y32F, A51T, N53K, A55P, A60D, N93S, Q100G, K103T
notes: Soluble Fab
**Q.** Does B14 bind [1]?
**A.** no binding

**Q.** Does B14 bind [2]?
**A.** no binding

**Q.** Does WSLHTLGLPFVF [P123-10] bind (H44L4 full-length IgG)?
**A.** binds

**Q.** Does CVTSKPHTC [P74-5] bind (H44L4 full-length IgG)?
**A.** binds

**Q.** Does CLIPWMFNC [P74-3] bind (H44L4 full-length IgG)?
**A.** binds

B15: P3-4 (peptide)
peptide: CPSLAHRWC
notes: as for B2
**Q.** Does B15 bind (H44L4 full-length IgG)?
**A.** binds

B16: H44L126 (Fab, V domains shown)
VH: QVQLVESGGGVVQPGRSLRLSCAASGFTFSYYAMVWVRQAPGKGLEWVAVISNDGRNKYYADSVKGRFTISRDNAKNTLYLQMNSLRVEDTAVYYCARLGYWGPGTLVTVSS
VL: DIQMTQSPSSLSASVGDRVIVTCRASQSISSYVSWYQQKPGKAPKLLISTTSTLQSGVPSRFSGSASGTDFTLTISSLQPEDFATYYCQQSSSRPLTFGQGTKVEIK
notes: Soluble Fab
**Q.** Does B16 bind [3]?
**A.** no binding

B17: H44L127 (Fab, V domains shown)
VH: B16 VH
VL: DIQMTQSPSSLSASVGDRVTITCRASQTITSFLNWYQQKRGKAPKLLIYGASTLQSGVPSRFSGSGSGTDFTLTISSLQPEDVATYYCQQTYSQPLTFGQGTKVEIK
notes: Soluble Fab
**Q.** Does B17 bind [3]?
**A.** no binding

B18: H44L4 (Fab, V domains shown)
VH: B16 VH
VL: DIQMTQSPSSLSVSVGDRVTITCRASQTITMYLNWYQQKPGKAPKLLIYAGSSLPSGVPPRFSGSGSGTDFTLTISSLQPEDFATYYCQQSYSTLTFGGGTKVEMK
notes: their results are put here; also called anti-GPIIb/IIIa platelet autoantibody; ITP patient A antibody H44L4
**Q.** Does B18 bind (immobilized GPIa/IIa)?
**A.** no binding

**Q.** Does B18 bind [4]?
**A.** no binding

B19: H44L128 (Fab, V domains shown)
VH: B16 VH
VL: DIQMTQSPSSLSAFVGDRVTITCRASQSITSYLNWYQQKPGKAPNLLIYAASSLQSGVPSRFSGSGSGTEFTLTISSLQPEDYATYYCQQRYSYILTFGQGTKVEIK
notes: Soluble Fab
**Q.** Does B19 bind [3]?
**A.** no binding

— patent publication US8216581 (University of Pennsylvania, dated 2012)
